Data as given in patent publication US20210138058A1.

Molecular target: human TLR5 (HEK-Blue hTLR5 reporter cells) (human) (UniProt O60602)
Assay: cell-based or functional assay

Chain of UniProt O60602 (O60602 21-858): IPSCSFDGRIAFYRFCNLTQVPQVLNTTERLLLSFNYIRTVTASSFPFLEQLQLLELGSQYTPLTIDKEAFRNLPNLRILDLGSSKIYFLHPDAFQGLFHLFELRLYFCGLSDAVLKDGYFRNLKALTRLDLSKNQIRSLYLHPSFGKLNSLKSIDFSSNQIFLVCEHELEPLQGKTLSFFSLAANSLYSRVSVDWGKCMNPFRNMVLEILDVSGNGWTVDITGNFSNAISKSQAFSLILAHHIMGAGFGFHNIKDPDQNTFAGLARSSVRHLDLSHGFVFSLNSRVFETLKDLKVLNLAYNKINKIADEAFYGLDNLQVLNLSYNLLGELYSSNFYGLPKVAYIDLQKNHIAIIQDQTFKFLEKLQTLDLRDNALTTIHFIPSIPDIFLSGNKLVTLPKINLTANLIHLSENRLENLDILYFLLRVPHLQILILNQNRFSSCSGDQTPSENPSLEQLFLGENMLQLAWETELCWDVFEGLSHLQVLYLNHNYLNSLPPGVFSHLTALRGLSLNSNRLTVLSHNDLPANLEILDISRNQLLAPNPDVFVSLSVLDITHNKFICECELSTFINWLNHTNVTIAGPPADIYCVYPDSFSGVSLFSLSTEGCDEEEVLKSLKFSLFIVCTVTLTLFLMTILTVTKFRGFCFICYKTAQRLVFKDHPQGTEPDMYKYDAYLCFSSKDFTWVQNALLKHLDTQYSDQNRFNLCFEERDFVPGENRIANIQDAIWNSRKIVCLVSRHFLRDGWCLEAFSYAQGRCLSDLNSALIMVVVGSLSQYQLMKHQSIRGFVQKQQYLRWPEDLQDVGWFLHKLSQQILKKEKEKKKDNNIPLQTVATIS

## Recombinant purified flagellin protein FlaAMRx0518 (Enterococcus gallinarum MRx0518 flagellin, N-terminal 6xHis tag) (ligand)
  potency of TLR5 response against FlaADSM100110 (HEK-Blue hTLR5 SEAP reporter) (fold against FlaADSM100110): 5
